Data taken from PMC9352680, “A comprehensive thermodynamic model for RNA binding by the Saccharomyces cerevisiae Pumilio protein PUF4”.

B1: Ib_S2_P3E.1_K3.1_C3.1_H3.1_A3.1_[A6T]_F3.1_[A8G]_T3.1 (ssRNA)
RNA: UUUGAUUAAUAUGAUAUCGUUCUUUCUUGUAUUUGUUCUUUCUCGAUAUCAUAUUAAUCUUU
B2: Ib_S2_P3E.1_K3.1_C3.1_H3.1_A3.1_[A6G]_F3.1_[A8C]_T3.1 (ssRNA)
RNA: UUUGAUUAAUAUGAUAUCGUUCUUUCUUGUAUGUCUUCUUUCUCGAUAUCAUAUUAAUCUUU
B3: Ic_S2_P3E.1_K3.1_C3.1_H3.1_A3.1_[A6C]_F3.1_[A8C]_T3.1 (ssRNA)
RNA: UUUGAUUAAUAUGAUAUCGUUCUUUCUUGUAUCUCUUCUUUCUCGAUAUCAUAUUAAUCUUU
B4: Ie_S2_P4E.1_K4.1_C4.1_H4.1_[+2CT]_A4.1_F4.1_T4.1 (ssRNA)
RNA: UUUGAUUAAUAUGAUAUCGUUCUUUCUUGCUUAUAUUAUUCUUUCUCGAUAUCAUAUUAAUCUUU
B5: Ie_S2_P4E.1_K4.1_C4.1_H4.1_[+3TT]_A4.1_F4.1_T4.1 (ssRNA)
RNA: UUUGAUUAAUAUGAUAUCGUUCUUUCUUGUUUAUAUUAUUCUUUCUCGAUAUCAUAUUAAUCUUU
B6: Ie_S2_P4E.1_K4.1_C4.1_H4.1_[+2TC]_A4.1_F4.1_T4.1 (ssRNA)
RNA: UUUGAUUAAUAUGAUAUCGUUCUUUCUUGUCUAUAUUAUUCUUUCUCGAUAUCAUAUUAAUCUUU
B7: Ie_S2_P4E.1_K4.1_C4.1_H4.1_A4.1_[+5CT]_F4.1_T4.1 (ssRNA)
RNA: UUUGAUUAAUAUGAUAUCGUUCUUUCUUGUAUCUAUUAUUCUUUCUCGAUAUCAUAUUAAUCUUU
B8: Ie_S2_P5E.1_K5.1_C5.1_H5.1_[+4T]_A5.1_F5.1_T5.1 (ssRNA)
RNA: UUUGAUUAAUAUGAUAUCGUUCUUUCUUGUAUUUAUUAUUCUUUCUCGAUAUCAUAUUAAUCUUU
B9: Ie_S2_P4E.1_K4.1_C4.1_H4.1_[+2TCC]_A4.1_F4.1_T4.1 (ssRNA)
RNA: UUUGAUUAAUAUGAUAUCGUUCUUUCUUGUCCUAUAUUAUUCUUUCUCGAUAUCAUAUUAAUCUUU
B10: Ie_S2_P4E.1_K4.1_C4.1_H4.1_[+4CCT]_A4.1_F4.1_T4.1 (ssRNA)
RNA: UUUGAUUAAUAUGAUAUCGUUCUUUCUUGUACCUUAUUAUUCUUUCUCGAUAUCAUAUUAAUCUUU
B11: Ie_S2_P5E.1_K5.1_C5.1_H5.1_[+4TT]_A5.1_F5.1_T5.1 (ssRNA)
RNA: UUUGAUUAAUAUGAUAUCGUUCUUUCUUGUAUUUUAUUAUUCUUUCUCGAUAUCAUAUUAAUCUUU
B12: Ie_S2_P4E.1_K4.1_C4.1_H4.1_[+4TCC]_A4.1_F4.1_T4.1 (ssRNA)
RNA: UUUGAUUAAUAUGAUAUCGUUCUUUCUUGUAUCCUAUUAUUCUUUCUCGAUAUCAUAUUAAUCUUU
B13: Ie_S2_P5E.1_K5.1_C5.1_H5.1_A5.1_[+6CT]_F5.1_T5.1 (ssRNA)
RNA: UUUGAUUAAUAUGAUAUCGUUCUUUCUUGUAUUCUAUUAUUCUUUCUCGAUAUCAUAUUAAUCUUU
B14: Ie_S2_P5E.1_K5.1_C5.1_H5.1_[+4CT]_A5.1_F5.1_T5.1 (ssRNA)
RNA: UUUGAUUAAUAUGAUAUCGUUCUUUCUUGUACUUUAUUAUUCUUUCUCGAUAUCAUAUUAAUCUUU
B15: Ie_S2_P5E.1_K5.1_C5.1_H5.1_[+4TC]_A5.1_F5.1_T5.1 (ssRNA)
RNA: UUUGAUUAAUAUGAUAUCGUUCUUUCUUGUAUCUUAUUAUUCUUUCUCGAUAUCAUAUUAAUCUUU
B16: Ie_S2_P4E.1_K4.1_C4.1_H4.1_[+2CTT]_A4.1_F4.1_T4.1 (ssRNA)
RNA: UUUGAUUAAUAUGAUAUCGUUCUUUCUUGCUUUAUAUUAUUCUUUCUCGAUAUCAUAUUAAUCUUU
B17: Ie_S2_P4E.1_K4.1_C4.1_H4.1_[+3CTT]_A4.1_F4.1_T4.1 (ssRNA)
RNA: UUUGAUUAAUAUGAUAUCGUUCUUUCUUGUCUUAUAUUAUUCUUUCUCGAUAUCAUAUUAAUCUUU
B18: Ie_S2_P4E.1_K4.1_C4.1_H4.1_[+3CTC]_A4.1_F4.1_T4.1 (ssRNA)
RNA: UUUGAUUAAUAUGAUAUCGUUCUUUCUUGUCUCAUAUUAUUCUUUCUCGAUAUCAUAUUAAUCUUU
B19: Ie_S2_P4E.1_K4.1_C4.1_H4.1_[+2CTCT]_A4.1_F4.1_T4.1 (ssRNA)
RNA: UUUGAUUAAUAUGAUAUCGUUCUUUCUUGCUCUUAUAUUAUUCUUUCUCGAUAUCAUAUUAAUCUUU
B20: Ie_S2_P4E.1_K4.1_C4.1_H4.1_[+4CCCT]_A4.1_F4.1_T4.1 (ssRNA)
RNA: UUUGAUUAAUAUGAUAUCGUUCUUUCUUGUACCCUUAUUAUUCUUUCUCGAUAUCAUAUUAAUCUUU
B21: Ie_S2_P4E.1_K4.1_C4.1_H4.1_[+2TCTC]_A4.1_F4.1_T4.1 (ssRNA)
RNA: UUUGAUUAAUAUGAUAUCGUUCUUUCUUGUCUCUAUAUUAUUCUUUCUCGAUAUCAUAUUAAUCUUU
B22: Ie_S2_P5E.1_K5.1_C5.1_H5.1_A5.1_[+5TCC]_F5.1_T5.1 (ssRNA)
RNA: UUUGAUUAAUAUGAUAUCGUUCUUUCUUGUAUUCCUAUUAUUCUUUCUCGAUAUCAUAUUAAUCUUU
B23: Ie_S2_P4E.1_K4.1_C4.1_H4.1_[+3CCCT]_A4.1_F4.1_T4.1 (ssRNA)
RNA: UUUGAUUAAUAUGAUAUCGUUCUUUCUUGUCCCUAUAUUAUUCUUUCUCGAUAUCAUAUUAAUCUUU
B24: Ie_S2_P4E.1_K4.1_C4.1_H4.1_A4.1_[+5CTCT]_F4.1_T4.1 (ssRNA)
RNA: UUUGAUUAAUAUGAUAUCGUUCUUUCUUGUAUCUCUAUUAUUCUUUCUCGAUAUCAUAUUAAUCUUU
B25: Ie_S2_P4E.1_K4.1_C4.1_H4.1_[+2CCCT]_A4.1_F4.1_T4.1 (ssRNA)
RNA: UUUGAUUAAUAUGAUAUCGUUCUUUCUUGCCCUUAUAUUAUUCUUUCUCGAUAUCAUAUUAAUCUUU
B26: Ie_S2_P4E.1_K4.1_C4.1_H4.1_[+2TTCC]_A4.1_F4.1_T4.1 (ssRNA)
RNA: UUUGAUUAAUAUGAUAUCGUUCUUUCUUGUUCCUAUAUUAUUCUUUCUCGAUAUCAUAUUAAUCUUU
B27: Ie_S2_P4E.1_K4.1_C4.1_H4.1_[+3CCTC]_A4.1_F4.1_T4.1 (ssRNA)
RNA: UUUGAUUAAUAUGAUAUCGUUCUUUCUUGUCCUCAUAUUAUUCUUUCUCGAUAUCAUAUUAAUCUUU
B28: Ie_S2_P4E.1_K4.1_C4.1_H4.1_[+2C]_A4.1_F4.1_T4.1 (ssRNA)
RNA: UUUGAUUAAUAUGAUAUCGUUCUUUCUUGCUAUAUUAUUCUUUCUCGAUAUCAUAUUAAUCUUU
B29: If_S2_P5E.1_K5.1_C5.1_H5.1_A5.1_F5.1_T5.1 (ssRNA)
RNA: UUUGAUUAAUAUGAUAUCGUUCUUUCUUGUAUUAUUAUUCUUUCUCGAUAUCAUAUUAAUCUUU
B30: Ie_S2_P4E.1_K4.1_C4.1_H4.1_[+1CCCTT]_A4.1_F4.1_T4.1 (ssRNA)
RNA: UUUGAUUAAUAUGAUAUCGUUCUUUCUUCCCUUGUAUAUUAUUCUUUCUCGAUAUCAUAUUAAUCUUU
B31: Ie_S2_P4E.1_K4.1_C4.1_H4.1_[+2TCTCT]_A4.1_F4.1_T4.1 (ssRNA)
RNA: UUUGAUUAAUAUGAUAUCGUUCUUUCUUGUCUCUUAUAUUAUUCUUUCUCGAUAUCAUAUUAAUCUUU
B32: Ie_S2_P4E.1_K4.1_C4.1_H4.1_[+3CCCTT]_A4.1_F4.1_T4.1 (ssRNA)
RNA: UUUGAUUAAUAUGAUAUCGUUCUUUCUUGUCCCUUAUAUUAUUCUUUCUCGAUAUCAUAUUAAUCUUU
B33: Ie_S2_P4E.1_K4.1_C4.1_H4.1_[+3TTCCT]_A4.1_F4.1_T4.1 (ssRNA)
RNA: UUUGAUUAAUAUGAUAUCGUUCUUUCUUGUUUCCUAUAUUAUUCUUUCUCGAUAUCAUAUUAAUCUUU
B34: Ie_S2_P4E.1_K4.1_C4.1_H4.1_[+2CCTCT]_A4.1_F4.1_T4.1 (ssRNA)
RNA: UUUGAUUAAUAUGAUAUCGUUCUUUCUUGCCUCUUAUAUUAUUCUUUCUCGAUAUCAUAUUAAUCUUU
B35: Ie_S2_P4E.1_K4.1_C4.1_H4.1_[+4CCTCT]_A4.1_F4.1_T4.1 (ssRNA)
RNA: UUUGAUUAAUAUGAUAUCGUUCUUUCUUGUACCUCUUAUUAUUCUUUCUCGAUAUCAUAUUAAUCUUU
B36: Ie_S2_P4E.1_K4.1_C4.1_H4.1_[+3CTCTC]_A4.1_F4.1_T4.1 (ssRNA)
RNA: UUUGAUUAAUAUGAUAUCGUUCUUUCUUGUCUCUCAUAUUAUUCUUUCUCGAUAUCAUAUUAAUCUUU
B37: Ie_S2_P4E.1_K4.1_C4.1_H4.1_[+3TCTCT]_A4.1_F4.1_T4.1 (ssRNA)
RNA: UUUGAUUAAUAUGAUAUCGUUCUUUCUUGUUCUCUAUAUUAUUCUUUCUCGAUAUCAUAUUAAUCUUU
B38: Ie_S2_P4E.1_K4.1_C4.1_H4.1_[+4TTCCT]_A4.1_F4.1_T4.1 (ssRNA)
RNA: UUUGAUUAAUAUGAUAUCGUUCUUUCUUGUAUUCCUUAUUAUUCUUUCUCGAUAUCAUAUUAAUCUUU
B39: Ie_S2_P4E.1_K4.1_C4.1_H4.1_[+4CTCTC]_A4.1_F4.1_T4.1 (ssRNA)
RNA: UUUGAUUAAUAUGAUAUCGUUCUUUCUUGUACUCUCUAUUAUUCUUUCUCGAUAUCAUAUUAAUCUUU
B40: Ie_S2_P4E.1_K4.1_C4.1_H4.1_[+4TCTCT]_A4.1_F4.1_T4.1 (ssRNA)
RNA: UUUGAUUAAUAUGAUAUCGUUCUUUCUUGUAUCUCUUAUUAUUCUUUCUCGAUAUCAUAUUAAUCUUU
B41: Ie_S2_P4E.1_K4.1_C4.1_H4.1_[+2CTCTC]_A4.1_F4.1_T4.1 (ssRNA)
RNA: UUUGAUUAAUAUGAUAUCGUUCUUUCUUGCUCUCUAUAUUAUUCUUUCUCGAUAUCAUAUUAAUCUUU

Target: T1, PUF4 RNA-binding domain (Saccharomyces cerevisiae, UniProt P25339 537-888)
T1 sequence: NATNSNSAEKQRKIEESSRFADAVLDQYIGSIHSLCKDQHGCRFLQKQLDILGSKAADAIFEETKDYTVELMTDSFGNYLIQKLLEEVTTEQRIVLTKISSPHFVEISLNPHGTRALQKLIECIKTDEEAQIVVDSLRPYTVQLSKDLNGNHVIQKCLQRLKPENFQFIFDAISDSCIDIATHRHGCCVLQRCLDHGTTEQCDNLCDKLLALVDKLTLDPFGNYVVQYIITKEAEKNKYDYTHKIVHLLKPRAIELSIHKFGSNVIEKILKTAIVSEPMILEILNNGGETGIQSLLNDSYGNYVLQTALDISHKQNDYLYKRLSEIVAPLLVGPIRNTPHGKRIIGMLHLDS
Assay: Mg; RNA-MaP; 20 mM Na-HEPES pH 7.4, 30 mM KOAc, 0.75 mM MgCl2, 0.1% Tween-20, 5% glycerol, 0.1 mg/mL BSA, 2 mM DTT; 25 C; 0.0125-409.6 nM protein
Settings: tags: N-His6-TEV cleaved; C-SNAP kept, Cy3B-labelled; label: tethered on chip by stalled RNA polymerase

Binder	Kd [nM]
B1	37.8
B2	90.1
B3	15.4
B4	198
B5	34.1
B6	27.8
B7	5.74
B8	11.6
B9	10.9
B10	1.13
B11	1.57
B12	2.35
B13	1.41
B14	0.922
B15	1.55
B16	111
B17	14.4
B18	9.57
B19	47.4
B20	1.96
B21	16.8

Binder	Kd [nM]
B22	4.58
B23	41.4
B24	4.51
B25	127
B26	17.9
B27	106
B28	81.5
B29	1.92
B30	0.12
B31	26.5
B32	35.8
B33	17.5
B34	122
B35	5.57
B36	135
B37	12
B38	8
B39	6.5
B40	7.16
B41	101
